# Measured values as given in patent publication US20060257938A1, “Method of screening for drugs that block ligand binding to a lipid binding protein” (priority 2005, published 2006).
# How the values were obtained:
# Type in all cases: binding
# [1] = Probe fluorescence ratio response to palmitoleic acid relative to ADIFAB2; details: response relative to ADIFAB2
# Procedure, shortened: (§1)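 Fluorescently labeled rat intestinal FABP variants were read at two emission wavelengths, near the unbound maximum (about 420 to 480 nm) and the FFA-bound maximum (about 495 to 580 nm). R = Fλ1/Fλ2 after subtracting probe-free intensity; ΔR = R+agent − R0, normalized to ADIFAB2 (rI-FABP-L72A).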
# [2] = Probe fluorescence ratio response to stearic acid relative to ADIFAB2; details: response relative to ADIFAB2
# Procedure, shortened: as §1
# [3] = Probe fluorescence ratio response to linolenic acid relative to ADIFAB2; details: response relative to ADIFAB2
# Procedure, shortened: as §1
# [4] = Probe fluorescence ratio response to oleic acid relative to ADIFAB2; details: response relative to ADIFAB2
# Procedure, shortened: as §1
# [5] = Probe fluorescence ratio response to arachidonic acid relative to ADIFAB2; details: arachidonic acid; response relative to ADIFAB2
# Procedure, shortened: as §1
# [6] = Probe fluorescence ratio response to linoleic acid relative to ADIFAB2; details: response relative to ADIFAB2
# Procedure, shortened: as §1
# [7] = Probe fluorescence ratio response to palmitic acid relative to ADIFAB2; details: response relative to ADIFAB2
# Procedure, shortened: as §1
Molecule,DR/DR POA [1],DR/DR SA [2],DR/DR LNA [3],DR/DR OA [4],DR/DR AA [5],DR/DR LA [6],DR/DR PA [7]
"72E 73V 74A (protein, listed as Rattus norvegicus, PEPTIDE (1)...(131) wild-type rat intestinal fatty acid binding protein) AFDGTWKVDRNENYEKFMEKMGINVVKRKLGAHDNLKLTITQEGNKFTVKESSNFRNIDVVFELGVDFAYSEVAGTELTGTWTMEGNKLVGKFKRVDNGKELIAVREISGNELIQTYTYEGVEAKRIFKKE",1.093,0.234,0.784,0.524,0.478,0.735,0.736
"18I 31M 55M 72A (protein, listed as Rattus norvegicus, PEPTIDE (1)...(131) wild-type rat intestinal fatty acid binding protein) AFDGTWKVDRNENYEKFIEKMGINVVKRKLMAHDNLKLTITQEGNKFTVKESSNMRNIDVVFELGVDFAYSAADGTELTGTWTMEGNKLVGKFKRVDNGKELIAVREISGNELIQTYTYEGVEAKRIFKKE",1.353,0.296,1.358,0.601,1.010,1.134,1.099
"72T 73I 74A (protein, listed as Rattus norvegicus, PEPTIDE (1)...(131) wild-type rat intestinal fatty acid binding protein) AFDGTWKVDRNENYEKFMEKMGINVVKRKLGAHDNLKLTITQEGNKFTVKESSNFRNIDVVFELGVDFAYSTIAGTELTGTWTMEGNKLVGKFKRVDNGKELIAVREISGNELIQTYTYEGVEAKRIFKKE",2.320,1.359,1.944,1.721,2.148,1.795,1.687
"18I 31Y 73G 72A (protein, listed as Rattus norvegicus, PEPTIDE (1)...(131) wild-type rat intestinal fatty acid binding protein) AFDGTWKVDRNENYEKFIEKMGINVVKRKLYAHDNLKLTITQEGNKFTVKESSNFRNIDVVFELGVDFAYSAGDGTELTGTWTMEGNKLVGKFKRVDNGKELIAVREISGNELIQTYTYEGVEAKRIFKKE",2.637,0.860,2.706,1.632,1.796,2.559,1.886
"72T 73G 74I (protein, listed as Rattus norvegicus, PEPTIDE (1)...(131) wild-type rat intestinal fatty acid binding protein) AFDGTWKVDRNENYEKFMEKMGINVVKRKLGAHDNLKLTITQEGNKFTVKESSNFRNIDVVFELGVDFAYSTGIGTELTGTWTMEGNKLVGKFKRVDNGKELIAVREISGNELIQTYTYEGVEAKRIFKKE",2.771,1.755,2.317,2.414,2.226,2.577,2.177
"14M 18L 31W 73I 117G 72A (protein, listed as Rattus norvegicus, PEPTIDE (1)...(131) wild-type rat intestinal fatty acid binding protein) AFDGTWKVDRNENMEKFLEKMGINVVKRKLWAHDNLKLTITQEGNKFTVKESSNFRNIDVVFELGVDFAYSAIDGTELTGTWTMEGNKLVGKFKRVDNGKELIAVREISGNELIQTGTYEGVEAKRIFKKE",1.569,0.487,1.869,1.712,2.032,2.034,0.998
"72S 73V 74A (protein, listed as Rattus norvegicus, PEPTIDE (1)...(131) wild-type rat intestinal fatty acid binding protein) AFDGTWKVDRNENYEKFMEKMGINVVKRKLGAHDNLKLTITQEGNKFTVKESSNFRNIDVVFELGVDFAYSSVAGTELTGTWTMEGNKLVGKFKRVDNGKELIAVREISGNELIQTYTYEGVEAKRIFKKE",2.727,1.572,2.330,2.295,2.127,2.397,2.601
"72S 74A (protein, listed as Rattus norvegicus, PEPTIDE (1)...(131) wild-type rat intestinal fatty acid binding protein) AFDGTWKVDRNENYEKFMEKMGINVVKRKLGAHDNLKLTITQEGNKFTVKESSNFRNIDVVFELGVDFAYSSAAGTELTGTWTMEGNKLVGKFKRVDNGKELIAVREISGNELIQTYTYEGVEAKRIFKKE",2.034,1.114,2.002,1.575,1.648,2.037,1.615
"72A 73P 74E (protein, listed as Rattus norvegicus, PEPTIDE (1)...(131) wild-type rat intestinal fatty acid binding protein) AFDGTWKVDRNENYEKFMEKMGINVVKRKLGAHDNLKLTITQEGNKFTVKESSNFRNIDVVFELGVDFAYSAPEGTELTGTWTMEGNKLVGKFKRVDNGKELIAVREISGNELIQTYTYEGVEAKRIFKKE",2.087,1.512,1.863,1.802,1.975,1.741,1.732
"18V 31A 55I 72A (protein, listed as Rattus norvegicus, PEPTIDE (1)...(131) wild-type rat intestinal fatty acid binding protein) AFDGTWKVDRNENYEKFVEKMGINVVKRKLAAHDNLKLTITQEGNKFTVKESSNIRNIDVVFELGVDFAYSAADGTELTGTWTMEGNKLVGKFKRVDNGKELIAVREISGNELIQTYTYEGVEAKRIFKKE",1.563,0.420,1.580,0.791,0.989,1.334,1.280
"18I 31Y 72A (protein, listed as Rattus norvegicus, PEPTIDE (1)...(131) wild-type rat intestinal fatty acid binding protein) AFDGTWKVDRNENYEKFIEKMGINVVKRKLYAHDNLKLTITQEGNKFTVKESSNFRNIDVVFELGVDFAYSAADGTELTGTWTMEGNKLVGKFKRVDNGKELIAVREISGNELIQTYTYEGVEAKRIFKKE",2.639,0.994,2.813,2.096,2.205,2.790,1.762
